These results are taken from PMC4670554 (Nuclear medicine and biology, 2014).

A short description of one series: in vivo. Details: species or system mice. To be noted: female, athymic nu/nu nude, mouse, total radioactivity.
Another series concerns U87MG gliobastoma tumors. In words: in vivo. Details: species or system mice. To be noted: mouse.

As for `N=C(N)NCCC[C@@H]1NC(=O)[C@H](CCCCNC(=S)Nc2ccc(CCCCCC(CN3CCN(CC(=O)O)CCN(CC(=O)O)CC3)N(CC(=O)O)CC(=O)O)cc2)NC(=O)[C@@H](Cc2ccc(O)cc2)NC(=O)[C@H](CC(=O)O)NC(=O)CNC1=O` (stereo partly shown) [^177Lu-5p-C-NETA-c(RGDyK), metal not drawn], the tissue uptake at 4 h in the series “in vivo” (100 ug, Tumor uptake, blocked) is 0.6 ± 0.14 %ID/g; in “in vivo” (Tumor uptake), 1.15 ± 0.27 %ID/g. For the same compound, the tissue uptake at 1 h in the series “in vivo” (Liver uptake) came to 1.59 ± 0.22 %ID/g; in the series “in vivo” (Radioactivity in the blood), 0.46 ± 0.06 %ID/g. Moreover, the tissue uptake at 24 h in “in vivo” (Liver uptake) turned out to be 0.32 ± 0.06 %ID/g; in the series “in vivo” (Tumor uptake), 10.7 ± 0.38 %ID/g. For the same compound, the “Radioactivity in the blood” value in the series with U87MG gliobastoma tumors is “completely cleared”.

Usually tissue uptake stands for the share of the injected amount in each gram of the tissue.
